# Measurements taken from patent publication US7666835B2 (Imperial Innovations Limited, priority 2001, dated 2010).
# Legend:
# [1] = iPVN injection, food intake in 24-h fasted rats (studies 1b, 2b); format: in vivo, rat; details: study 1b; iPVN; OXM, GLP-1 (3 nmol [sic]), exendin-4 0.03 nmol, glicentin, glucagon 1 nmol, SP-1 3 nmol; fasted rats
# Experimental: (§1) Animals had permanent stainless steel guide cannulas (Plastics One, Roanoke, Va.) stereotactically implanted ICV or iPVN.
# Therefore, exendin-4 was injected iPVN at a dose of 0.03 nmol.
# [2] = ICV injection, food intake in 24-h fasted rats (studies 1a, 2a); format: in vivo, rat; details: study 1a; 3 nmol ICV; 24-h fasted rats; vs saline
# Description: as §1
molecule,measurement,setting,value
"glicentin (peptide, UniProt P01275 21-89, looked up, Glicentin, proglucagon-derived peptide purchased from Peninsula Laboratories) Glicentin: RSLQDTEEKSRSFSASQADPLSDPDQMNEDKRHSQGTFTSDYSKYLDSRRAQDFVQWLMNTKRNRNNIA",refeeding (food intake) after iPVN injection,[1],failed to affect food intake at any time point
same,refeeding (food intake) after ICV injection,[2],failed to affect food intake at any time point
